The target in assay [1] is T1, rat PTK-7 recombinant protein (rat, UniProt A0A8I6ALM9 40-713).
T1 construct: also called rat PTK7 protein
Kind of assay: ELISA, plate-coated rat PTK7 recombinant protein. As to the method: (§1) Binding specificity property was tested by ELISA according to a standard protocol. Specifically, 96-well micro-plates were coated with 2 μg/mL human, cynomolgus, mouse, and rat PTK-7 recombinant protein in PBS 100 μL per well, incubated overnight at 4° C. Plates were washed twice by TBS+0.5% Tween20. 200 μL of blocking buffer (2% BSA in PBS) was added to each well and incubated at 37° C. for 2 hours. Plates were washed using the buffer mentioned above. Serially diluted antibodies were added to the ELISA plate with 100 μL per well and incubated for 1 hour at room temperature. Then plates were washed for 3 times. After washing, HRP conjugated anti-human Fc antibody solution (abcam, ab98624, diluted with blocking buffer) was added to the plate with 100 μl per well. The plates were incubated at room temperature for 1 hour and then washed for 3 times. Then TMB solution was added to plates with 100 μl per well, placed at room temperature for 5-15 mins, then the stop solution (2M H₂SO₄) was added with 50 μl per well. Finally, the result was measured by absorbance at A₄₅₀ and A₆₃₀.

The target in assay [2] is T1, rat PTK-7 recombinant protein. Kind of assay: ELISA, plate-coated rat PTK7 protein, anti-human Fc-HRP detection. How it is done:
as §1

For assay [3] the target is unchanged. The experiment in a line: ELISA, plate coated with 2 ug/mL rat PTK-7 recombinant protein, HRP anti-human Fc detection, OD450. As to the method: as §1
In general terms: ELISA stands for enzyme-linked immunosorbent assay.

The target in assay [4] is T2, mouse PTK-7 recombinant protein (mouse, UniProt Q8BKG3 23-696, limits assumed).
T2 construct: also called mouse PTK7 protein
T2 sequence (looked up): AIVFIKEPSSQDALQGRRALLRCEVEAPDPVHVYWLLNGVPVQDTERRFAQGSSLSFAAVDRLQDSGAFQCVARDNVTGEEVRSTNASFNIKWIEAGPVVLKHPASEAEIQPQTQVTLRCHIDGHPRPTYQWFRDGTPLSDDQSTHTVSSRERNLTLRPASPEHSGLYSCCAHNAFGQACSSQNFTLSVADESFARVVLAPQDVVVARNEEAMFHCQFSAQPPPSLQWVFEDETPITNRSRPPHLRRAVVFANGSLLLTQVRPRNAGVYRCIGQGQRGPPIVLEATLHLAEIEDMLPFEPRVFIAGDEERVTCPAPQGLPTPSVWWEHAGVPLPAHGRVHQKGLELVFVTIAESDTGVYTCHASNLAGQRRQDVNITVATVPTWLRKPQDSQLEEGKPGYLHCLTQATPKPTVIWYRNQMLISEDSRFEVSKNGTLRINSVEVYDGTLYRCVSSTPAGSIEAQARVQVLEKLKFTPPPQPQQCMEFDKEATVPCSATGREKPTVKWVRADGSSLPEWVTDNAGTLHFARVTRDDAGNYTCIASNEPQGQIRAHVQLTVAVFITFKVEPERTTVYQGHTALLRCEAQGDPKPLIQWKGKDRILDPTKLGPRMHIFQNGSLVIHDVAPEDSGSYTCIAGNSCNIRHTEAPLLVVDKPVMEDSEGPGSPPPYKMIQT
The experiment in a line: ELISA, plate coated with 2 ug/mL mouse PTK-7 recombinant protein, HRP anti-human Fc detection, OD450. As to the method:
as §1

Assay [5] deals with T2, mouse PTK-7 recombinant protein. The experiment in a line: ELISA, plate-coated mouse PTK7 protein, anti-human Fc-HRP detection. How it is done: as §1

B1: humanized antibody 13C4 (antibody, V domains shown)
VH: QVQLVESGGGLVKPGGSLRLSCAASGFAFSTYDMFWIRQAPGKGLEWVSTISSGGGYTYYPGSVKGRFTISRDNAKNSLYLQMNSLRAEDTAVYYCVRPLLRDSYFYFDVWGQGTMVTVSS
VL: EIVMTQSPATLSVSPGERATLSCRASSSVSSSYLHWYQQKPGQAPRLLIFRTSNLASGIPARFSGSGSGTEYTLTISSLQSEDAAVYYCQQYSGYPLTFGQGTKLEIK
notes: Only variable regions are tied to 13C4; It was detected with anti-human Fc
B1: the binding result in assay [1] is “no binding”.

B2: humanized antibody 2C5 (antibody, V domains shown)
VH: QVQLVQSGAEVKKPGASVKVSCKASGYTFTDYYINWVRQAPGQGLEWMGDINPYSGGPVYNQKFMARVTMTVDKSINTAYMELSRLRSDDTAVYYCARGDYYGSNYNYWGQGTLVTVSS
VL: EIVLTQSPATLSVSPGERATLSCRASQNIGTSIHWYQQKPGQAPRLLIKFASESISGIPARFSGSGSGTEFTLTISSLQSEDIAVYYCQQSNNWPYTFGQGTKLEIK
notes: Only variable regions are tied to 2C5; It was detected with anti-human Fc, so it has a human Fc
The term EC50 denotes the concentration needed to bring the measured effect to its halfway point. As to B2, the EC50 in assay [2] was found to be 1.57 nM; in assay [3], 5.24 nM; in assay [4], 1.57 nM; in assay [5] it was 5.24 nM.

B3: humanized antibody 2C8 (antibody, V domains shown)
VH: QIQLVQSGAEVKKPGASVKVSCKASGYTFTTYGMSWVRQAPGQGLEWMGWINTHSGVPTYVDEFKGRVTMTLDTSTSTAYMELSSLRSEDTAVYYCARSPFDYGSRGAWFVYWGQGTTVTVSS
VL: DVVMTQSPDSLAVSLGERATINCRSSQSIVHNSGDTYLEWYQQKPGQPPKLLIYKVSNRFPGVPDRFSGSGSGTDFTLTISSLQAEDLAVYYCFQGSHVPWTFGGGTKVEIK
notes: Only variable regions are tied to 2C8 by name; It was detected with anti-human Fc
As to B3, the binding result in assay [1] is given as “no binding”.

These data come from US20250115680A1 (PROFOUNDBIO US, published 2025).
